Source: the supplement of paper PMC10724198
± gives the standard deviation of the averaged measurements.

Each sequence was assayed on Saccharomyces cerevisiae (assay: protein stability index of tFT-peptide fusion (C-terminal peptide) (PSI (0-1 scale)); higher = more stable (slower turnover)). Conditions: genetic background: wild type; temperature: 30 C.
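Also: PSI is a weighted mean of sequencing reads over stability bins, variants kept only with over 10 reads, mCherry proximal and sfGFP distal, peptide attached via GGGS linker.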

Sequence | protein stability index
SFLVSALASSLA | 0.652 ± 0.019
SFNHAKPPLHPA | 0.683 ± 0.03
SFNVFKINSITV | 0.562 ± 0.019
SFPHSFLFPLFP | 0.751 ± 0.09
SFPLSPAFPSFL | 0.744 ± 0.025
SFPPPLPPSPTP | 0.697 ± 0.036
SFPRPTSALSLN | 0.604 ± 0.075
SFPRYRWRAATE | 0.6704 ± 0.0021
SFPSLLRPPHFS | 0.706 ± 0.041
SFPVPFPRFFPP | 0.714 ± 0.03
SFRDRHRRLCDL | 0.596 ± 0.035
SFRFFVSGFVVL | 0.531 ± 0.009
SFRLRSLVFGFF | 0.597 ± 0.067
SFRQSRLKRRGY | 0.672 ± 0.15
SFSACGEPVPPG | 0.661 ± 0.0077
SFSFPFFFWGLL | 0.592 ± 0.0061
SFSIPTCSVPLT | 0.687 ± 0.096
SFSPLRLPPSLL | 0.724 ± 0.049
SGAGVGWGCSSV | 0.635 ± 0.047
SGAGVNWGVGWG | 0.714 ± 0.029
SGALSDVCVMLL | 0.652 ± 0.026
SGAPAQLSLSSL | 0.6568 ± 0.0032
SGCPGPNVPRVP | 0.705 ± 0.014
SGDGGVGHWVGG | 0.676 ± 0.025
SGEVMGAMVLHE | 0.773 ± 0.12
SGFFGFLLGAYG | 0.5876 ± 0.0031

Sequence | protein stability index
SGFLLVLRRPRE | 0.655 ± 0.05
SGGGGWVVGGVA | 0.663 ± 0.011
SGGTDMLALRVR | 0.632 ± 0.062
SGHRPPRVAVDS | 0.66 ± 0.044
SGIWLKRVTMYR | 0.7027 ± 0.0047
SGKGRRLVLGSS | 0.6895 ± 0.0039
SGKVNNKEGKWK | 0.686 ± 0.015
SGLAARFGLPIR | 0.674 ± 0.016
SGLPALPRPVWP | 0.491 ± 0.076
SGLPVPFSALRS | 0.718 ± 0.049
SGLRQGRHVYPA | 0.682 ± 0.011
SGPAVLPTFVSP | 0.65 ± 0.077
SGPGGVGPTGGI | 0.6585 ± 0.0055
SGPLPCPPLPAP | 0.676 ± 0.016
SGRIASQACLIW | 0.671 ± 0.045
SGRRRAPPAPSP | 0.732 ± 0.037
SGRSQERMYARW | 0.656 ± 0.012
SGRVRPNSRASP | 0.698 ± 0.073
SGSAPFLRTSKL | 0.685 ± 0.061
SGSPVFLDPPLS | 0.698 ± 0.015
SGTSDDWWPGVA | 0.785 ± 0.038
SGVCGRVGGGLR | 0.622 ± 0.047
SGVLASSCPSSC | 0.659 ± 0.016
SGVVGLGCVPWF | 0.857 ± 0.2
SGWSVGVMGESG | 0.627 ± 0.092
SGYKVYNSVHIL | 0.602 ± 0.026

Sequence | protein stability index
SHASTPSSRVIP | 0.716 ± 0.01
SHICSFLGICHA | 0.576 ± 0.031
SHIPRNLSPFSS | 0.754 ± 0.056
SHLAYVKWYIGD | 0.6305 ± 0.0042
SHPAPGSPTSPS | 0.67064 ± 0.00027
SHPPFPFAPPPR | 0.674 ± 0.031
SHPPPPPHTPPS | 0.736 ± 0.02
SHRTRPSQTPTQ | 0.643 ± 0.05
SHSPPSPPLPPP | 0.6773 ± 0.0042
SHTIVPNPLKLV | 0.576 ± 0.019
SHTSPSTPPPSP | 0.681 ± 0.0085
SICLLSAALPPP | 0.708 ± 0.029
SIFSFCSNTWFL | 0.747 ± 0.029
SIGACGEVTFGC | 0.7083 ± 0.00078
SIIGRKVNGVSN | 0.711 ± 0.0089
SIIIPATCEYLV | 0.603 ± 0.013
SIKGLVRSIALN | 0.638 ± 0.0064
SILFMYPARNAP | 0.7177 ± 0.0028
SILRLRSVVPAE | 0.6457 ± 0.0027
SIPLIMPLSDYV | 0.675 ± 0.015
SIVGGVVRVLCG | 0.603 ± 0.048
SKGARQRQPPDG | 0.5983 ± 0.0041
SKGFVIMRAACF | 0.572 ± 0.018
SKGLPADSQQPF | 0.729 ± 0.054
SKIKLYKIKKKK | 0.7206 ± 0.0054
SKKARIYIKKRR | 0.683 ± 0.053

Sequence | protein stability index
SKKLRRNKYRNG | 0.6871 ± 0.0039
SKKRKRNKKKGE | 0.74 ± 0.098
SKQKSKNYEAFK | 0.721 ± 0.039
SKRSYEEGNIVY | 0.672 ± 0.028
SKRYREKIVRNK | 0.677 ± 0.04
SKTEKELSNREF | 0.659 ± 0.025
SLAFIRFPSPSP | 0.668 ± 0.0083
SLAFLPPSLSSS | 0.713 ± 0.056
SLAPPVPPPPLH | 0.67 ± 0.026
SLFNADPYGFNL | 0.711 ± 0.03
SLFRVAFLYVQV | 0.5406 ± 0.0018
SLGGGGGLAWWL | 0.795 ± 0.26
SLGWGRVNVCGV | 0.666 ± 0.0031
SLHSSQYTRHSG | 0.673 ± 0.024
SLHVSSLPYALQ | 0.662 ± 0.082
SLKHRSSLRQLI | 0.519 ± 0.01
SLKIPSPLSPVL | 0.699 ± 0.028
SLLCDQSSLGQC | 0.747 ± 0.11
SLLELSPPRSPP | 0.681 ± 0.03
SLLFLRFLFSTP | 0.705 ± 0.0086
SLLLPLPLPVRL | 0.582 ± 0.0086
SLLPCAPHPRPV | 0.662 ± 0.074
SLPHHRPPHPRT | 0.752 ± 0.17
SLPKSSLFAPHL | 0.715 ± 0.023
SLPLPPPSPPHV | 0.676 ± 0.018
SLPPSPPPPSLP | 0.715 ± 0.028

Sequence | protein stability index
SLPRPYPQKVTG | 0.621 ± 0.015
SLRLHCSRQRRP | 0.649 ± 0.048
SLRLPPPTDTDS | 0.681 ± 0.03
SLRQEFDAIFVG | 0.604 ± 0.039
SLRSGFVSHFSP | 0.689 ± 0.11
SLRSIAPLGSRC | 0.832 ± 0.19
SLSAQTISDLSM | 0.68 ± 0.049
SLSDKRATKGED | 0.65 ± 0.018
SLSHPSPPRTLP | 0.697 ± 0.007
SLSIWSTSPPAA | 0.691 ± 0.0086
SLSLRPPPYPPP | 0.578 ± 0.0096
SLSPLPSPPPPP | 0.7 ± 0.0087
SLSPPPPAPRAP | 0.663 ± 0.02
SLSPTPVAPPLN | 0.678 ± 0.009
SLSRPASPPPHH | 0.674 ± 0.12
SLTLPAPPLSPC | 0.712 ± 0.11
SLTYTSVAKAEV | 0.6149 ± 0.0034
SLVVPVSAAQYV | 0.653 ± 0.028
SLVWVGGRRWPI | 0.73 ± 0.023
SMARVWLVWRWK | 0.673 ± 0.035
SMFLGLCGSIYG | 0.699 ± 0.056
SMMMIISQRKTR | 0.787 ± 0.1
SMPKMGISGVIY | 0.617 ± 0.051
SNDTRKNKKRRT | 0.797 ± 0.084
SNGYMFRRDRYV | 0.686 ± 0.028
SNLYNNQEQDHT | 0.723 ± 0.058

Sequence | protein stability index
SNPSTNPCWKKK | 0.643 ± 0.041
SNRALHATPCPR | 0.9 ± 0.038
SNRCGRGMRVFA | 0.658 ± 0.065
SNVHSYPEIRPG | 0.681 ± 0.01
SPAPLALSLRPP | 0.668 ± 0.023
SPAPPVPLHPPH | 0.714 ± 0.089
SPAPRAPRGICL | 0.706 ± 0.017
SPCPPPPPSPPS | 0.6637 ± 0.0013
SPETSSILLLSF | 0.612 ± 0.0035
SPGLQPVACPSF | 0.639 ± 0.019
SPGRPGLGGGAW | 0.776 ± 0.26
SPGRPSSPPRPR | 0.744 ± 0.029
SPGVFQQRHHTY | 0.665 ± 0.087
SPHSRAPPRFPP | 0.726 ± 0.14
SPILRFPPPCFL | 0.67 ± 0.019
SPKGHGEGGGSK | 0.6779 ± 0.00078
SPKPPPHPPPPA | 0.535 ± 0.0095
SPLASVLPHAAL | 0.707 ± 0.049
SPLFLPPPVPPP | 0.599 ± 0.039
SPLFPPIPSSLS | 0.7278 ± 0.00076
SPLGAADTRQEP | 0.687 ± 0.025
SPLLRSRPPPPI | 0.749 ± 0.016
SPLPPHPPLPLL | 0.6395 ± 0.002
SPLPPPSPRPSL | 0.681 ± 0.039
SPLPPRSPPRPA | 0.699 ± 0.01
SPLSPLPPALSL | 0.695 ± 0.046

Sequence | protein stability index
SPLSPPPPRLSA | 0.723 ± 0.061
SPPCPPPLAPPP | 0.758 ± 0.044
SPPFPRPCPFTP | 0.644 ± 0.086
SPPHPPPLLLPP | 0.655 ± 0.066
SPPHSPPWPLSL | 0.691 ± 0.052
SPPLGFAPPSRS | 0.853 ± 0.046
SPPLHTFSLPFY | 0.669 ± 0.021
SPPLLPGVLSES | 0.645 ± 0.055
SPPLPKFPPAIP | 0.689 ± 0.021
SPPLRPLSDLTP | 0.692 ± 0.085
SPPPAPPPISPS | 0.708 ± 0.15
SPPPFFSPSLPP | 0.65 ± 0.09
SPPPFPPSPSPP | 0.715 ± 0.039
SPPPGLSVILLH | 0.6 ± 0.054
SPPPHPVHPVPL | 0.611 ± 0.019
SPPPISIYPPFR | 0.668 ± 0.024
SPPPLPLPPPAP | 0.695 ± 0.013
SPPPNPRRPVPL | 0.6916 ± 0.0023
SPPPPLPPPLPP | 0.52453 ± 0.00047
SPPPPPPPPFPL | 0.672 ± 0.033
SPPPPRLPSHPS | 0.613 ± 0.14
SPPPPSCRHSPL | 0.741 ± 0.011
SPPPSPPTVLPI | 0.683 ± 0.022
SPPPSSPPPFPR | 0.639 ± 0.026
SPPPTDPPQPPL | 0.7035 ± 0.0018
SPPRPPAPPLLP | 0.676 ± 0.011

Sequence | protein stability index
SPPRPPPSPTPL | 0.771 ± 0.033
SPPRPPVLSPGH | 0.68 ± 0.085
SPPSATTLRAPS | 0.641 ± 0.037
SPPSFFRATRSN | 0.644 ± 0.096
SPPSFLSFFCAP | 0.755 ± 0.14
SPPSLPPLPPRF | 0.702 ± 0.016
SPPSPLRPPPPS | 0.7 ± 0.01
SPPSPRLPPPLL | 0.77 ± 0.046
SPPTPPLAPLSP | 0.656 ± 0.042
SPPTPPPSPPFL | 0.523 ± 0.012
SPPTPPTSICPS | 0.705 ± 0.03
SPRHAGSSAWRP | 0.674 ± 0.064
SPRPDSVLLRSP | 0.723 ± 0.025
SPRPLPLPLPTS | 0.682 ± 0.1
SPRSLLTPHPHM | 0.686 ± 0.041
SPRSSPLPSPPP | 0.766 ± 0.026
SPSFDLLFSPFD | 0.778 ± 0.01
SPSPAPPTRSPS | 0.696 ± 0.023
SPSPRLSFFLPS | 0.727 ± 0.026
SPSRVSYFFFFS | 0.641 ± 0.059
